Laboratory results as given in IntAct's records for PubMed 31515488.

B1: Notch homolog 2 N-terminal-like protein A (Homo sapiens), Q7Z3S9 (parent)
chain: MCVTYHNGTGYCKCPEGFLGEYCQHRDPCEKNRCQNGGTCVAQAMLGKATCRCASGFTGEDCQYSTSHPCFVSRPCLNGGTCHMLSRDTYECTCQVGFTGKECQWTDACLSHPCANGSTCTTVANQFSCKCLTGFTGQKCETDVNECDIPGHCQHGGTCLNLPGSYQCQCLQGFTGQYCDSLYVPCAPSPCVNGGTCRQTGDFTFECNCLPETVRRGTELWERDREVWNGKEHDEN
partner: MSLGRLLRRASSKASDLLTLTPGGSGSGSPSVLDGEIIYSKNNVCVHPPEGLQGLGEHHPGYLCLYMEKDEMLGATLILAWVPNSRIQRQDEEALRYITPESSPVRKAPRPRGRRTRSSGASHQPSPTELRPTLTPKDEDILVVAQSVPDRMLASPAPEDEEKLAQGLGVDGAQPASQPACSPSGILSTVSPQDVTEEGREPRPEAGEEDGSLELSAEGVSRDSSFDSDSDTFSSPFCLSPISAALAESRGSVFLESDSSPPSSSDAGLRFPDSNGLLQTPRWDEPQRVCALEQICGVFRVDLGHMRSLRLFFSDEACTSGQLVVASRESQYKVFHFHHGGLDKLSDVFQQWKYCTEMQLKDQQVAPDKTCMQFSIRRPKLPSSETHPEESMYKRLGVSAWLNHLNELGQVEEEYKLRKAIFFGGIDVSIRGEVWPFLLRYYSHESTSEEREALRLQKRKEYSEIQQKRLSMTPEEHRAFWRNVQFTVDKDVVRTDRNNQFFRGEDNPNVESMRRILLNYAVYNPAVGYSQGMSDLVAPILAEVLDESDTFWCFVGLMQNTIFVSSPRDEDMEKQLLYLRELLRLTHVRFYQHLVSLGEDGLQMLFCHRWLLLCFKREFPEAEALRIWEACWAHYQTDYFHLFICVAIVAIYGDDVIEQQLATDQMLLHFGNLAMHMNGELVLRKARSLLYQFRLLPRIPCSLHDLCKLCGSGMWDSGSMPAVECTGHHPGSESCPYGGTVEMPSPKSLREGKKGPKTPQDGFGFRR
B2: Transcription factor 12 (Homo sapiens), Q99081-3 (parent)
chain: MNPQQQRMAAIGTDKELSDLLDFSAMFSPPVNSGKTRPTTLGSSQFSGSGIDERGGTTSWGTSGQPSPSYDSSRGFTDSPHYSDHLNDSRLGAHEGLSPTPFMNSNLMGKTSERGSFSLYSRDTGLPGCQSSLLRQDLGLGSPAQLSSSGKPGTAYYSFSATSSRRRPLHDSAALDPLQAKKVRKVPPGLPSSVYAPSPNSDDFNRESPSYPSPKPPTSMFASTFFMQDGTHNSSDLWSSSNGMSQPGFGGILGTSTSHMSQSSSYGNLHSHDRLSYPPHSVSPTDINTSLPPMSSFHRGSTSSSPYVAASHTPPINGSDSILGTRGNAAGSSQTGDALGKALASIYSPDHTSSSFPSNPSTPVGSPSPLTGTSQWPRPGGQAPSSPSYENSLHSLKNRVEQQLHEHLQDAMSFLKDVCEQSRMEDRLDRLDDAIHVLRNHAVGPSTSLPAGHSDIHSLLGPSHNAPIGSLNSNYGGSSLVASSRSASMVGTHREDSVSLNGNHSVLSSTVTTSSTDLNHKTQENYRGGLQSQSGTVVTTEIKTENKEKDENLHEPPSSDDMKSDDESSQKDIKVSSRGRTSSTNEDEDLNPEQKIEREKERRMANNARERLRVRDINEAFKELGRMCQLHLKSEKPQTKLLILHQAVAVILSLEQQVRERNLNPKAACLKRREEEKVSAVSAEPPTTLPGTHPGLSETTNPMGHM
B3: Centrosomal protein of 55 kDa (Homo sapiens), Q53EZ4 (parent)
chain: MSSRSTKDLIKSKWGSKPSNSKSETTLEKLKGEIAHLKTSVDEITSGKGKLTDKERHRLLEKIRVLEAEKEKNAYQLTEKDKEIQRLRDQLKARYSTTTLLEQLEETTREGERREQVLKALSEEKDVLKQQLSAATSRIAELESKTNTLRLSQTVAPNCFNSSINNIHEMEIQLKDALEKNQQWLVYDQQREVYVKGLLAKIFELEKKTETAAHSLPQQTKKPESEGYLQEEKQKCYNDLLASAKKDLEVERQTITQLSFELSEFRRKYEETQKEVHNLNQLLYSQRRADVQHLEDDRHKTEKIQKLREENDIARGKLEEEKKRSEELLSQVQFLYTSLLKQQEEQTRVALLEQQMQACTLDFENEKLDRQHVQHQLHVILKELRKARNQITQLESLKQLHEFAITEPLVTFQGETENREKVAASPKSPTAALNESLVECPKCNIQYPATEHRDLLVHVEYCSK
partner: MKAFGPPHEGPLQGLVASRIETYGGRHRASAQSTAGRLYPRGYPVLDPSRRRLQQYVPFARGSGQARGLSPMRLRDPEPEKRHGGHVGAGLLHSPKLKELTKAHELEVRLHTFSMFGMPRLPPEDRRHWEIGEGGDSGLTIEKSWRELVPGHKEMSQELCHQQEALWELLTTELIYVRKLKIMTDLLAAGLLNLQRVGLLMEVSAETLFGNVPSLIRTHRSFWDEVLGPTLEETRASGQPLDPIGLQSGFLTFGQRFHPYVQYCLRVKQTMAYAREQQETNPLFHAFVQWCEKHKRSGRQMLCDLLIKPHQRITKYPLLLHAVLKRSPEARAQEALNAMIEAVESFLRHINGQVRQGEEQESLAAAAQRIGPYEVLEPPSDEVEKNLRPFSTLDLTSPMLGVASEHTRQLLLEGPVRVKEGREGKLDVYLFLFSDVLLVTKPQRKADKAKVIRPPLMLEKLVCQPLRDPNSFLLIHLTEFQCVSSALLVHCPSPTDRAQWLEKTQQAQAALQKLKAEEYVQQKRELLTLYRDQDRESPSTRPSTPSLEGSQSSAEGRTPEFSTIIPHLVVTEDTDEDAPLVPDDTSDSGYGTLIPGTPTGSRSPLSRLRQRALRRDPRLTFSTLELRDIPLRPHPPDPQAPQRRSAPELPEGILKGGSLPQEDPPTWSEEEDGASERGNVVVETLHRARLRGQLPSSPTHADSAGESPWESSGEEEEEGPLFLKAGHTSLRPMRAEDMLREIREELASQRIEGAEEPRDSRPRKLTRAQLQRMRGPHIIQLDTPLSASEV
B4: Zinc finger protein 774 (Homo sapiens), Q6NX45 (parent)
chain: MWLGTSGKSGLPGHCLENPLQECHPAQLEEWALKGISRPSVISQPEQKEEPWVLPLQNFEARKIPRESHTDCEHQVAKLNQDNSETAEQCGTSSERTNKDLSHTLSWGGNWEQGLELEGQHGTLPGEGQLESFSQERDLNKLLDGYVGEKPMCAECGKSFNQSSYLIRHLRTHTGERPYTCIECGKGFKQSSDLVTHRRTHTGEKPYQCKGCEKKFSDSSTLIKHQRTHTGERPYECPECGKTFGRKPHLIMHQRTHTGEKPYACLECHKSFSRSSNFITHQRTHTGVKPYRCNDCGESFSQSSDLIKHQRTHTGERPFKCPECGKGFRDSSHFVAHMSTHSGERPFSCPDCHKSFSQSSHLVTHQRTHTGERPFKCENCGKGFADSSALIKHQRIHTGERPYKCGECGKSFNQSSHFITHQRIHLGDRPYRCPECGKTFNQRSHFLTHQRTHTGEKPFHCSKCNKSFRQKAHLLCHQNTHLI
partner: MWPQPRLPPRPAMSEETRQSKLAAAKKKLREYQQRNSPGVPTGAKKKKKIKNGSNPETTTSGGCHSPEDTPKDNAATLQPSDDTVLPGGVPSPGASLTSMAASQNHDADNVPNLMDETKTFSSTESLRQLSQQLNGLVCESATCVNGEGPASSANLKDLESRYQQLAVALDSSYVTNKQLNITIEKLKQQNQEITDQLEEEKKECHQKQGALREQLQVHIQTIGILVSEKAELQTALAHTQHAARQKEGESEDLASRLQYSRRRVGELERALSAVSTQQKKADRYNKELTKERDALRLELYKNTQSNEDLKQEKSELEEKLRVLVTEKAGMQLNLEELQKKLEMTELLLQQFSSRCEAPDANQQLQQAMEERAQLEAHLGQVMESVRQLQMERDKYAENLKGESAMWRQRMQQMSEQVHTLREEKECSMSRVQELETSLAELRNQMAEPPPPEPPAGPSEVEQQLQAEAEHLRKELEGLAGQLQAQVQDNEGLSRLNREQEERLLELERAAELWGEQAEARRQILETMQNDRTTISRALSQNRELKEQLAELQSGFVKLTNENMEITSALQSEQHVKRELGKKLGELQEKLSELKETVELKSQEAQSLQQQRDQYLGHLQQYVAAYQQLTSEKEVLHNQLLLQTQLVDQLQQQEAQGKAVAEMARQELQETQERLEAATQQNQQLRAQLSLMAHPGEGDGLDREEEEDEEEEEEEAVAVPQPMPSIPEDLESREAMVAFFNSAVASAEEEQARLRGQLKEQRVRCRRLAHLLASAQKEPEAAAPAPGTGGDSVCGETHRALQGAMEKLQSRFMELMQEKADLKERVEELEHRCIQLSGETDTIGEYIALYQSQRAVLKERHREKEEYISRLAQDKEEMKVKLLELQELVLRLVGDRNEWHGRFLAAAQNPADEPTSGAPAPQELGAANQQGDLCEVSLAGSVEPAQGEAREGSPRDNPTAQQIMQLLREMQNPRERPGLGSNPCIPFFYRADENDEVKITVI
B5: Max-like protein X (Homo sapiens), Q9UH92 (parent)
chain: MTEPGASPEDPWVKASPVGAHAGEGRAGRARARRGAGRRGASLLSPKSPTLSVPRGCREDSSHPACAKVEYAYSDNSLDPGLFVESTRKGSVVSRANSIGSTSASSVPNTDDEDSDYHQEAYKESYKDRRRRAHTQAEQKRRDAIKRGYDDLQTIVPTCQQQDFSIGSQKLSKAIVLQKTIDYIQFLHKEKKKQEEEVSTLRKDVTALKIMKVNYEQIVKAHQDNPHEGEDQVSDQVKFNVFQGIMDSLFQSFNASISVASFQELSACVFSWIEEHCKPQTLREIVIGVLHQLKNQLY
B6: Placental protein 13-like (Homo sapiens), Q8TCE9 (parent)
chain: MSSLPVPYTLPVSLPVGSCVIITGTPILTFVKDPQLEVNFYTGMDEDSDIAFQFRLHFGHPAIMNSCVFGIWRYEEKCYYLPFEDGKPFELCIYVRHKEYKVMVNGQRIYNFAHRFPPASVKMLQVFRDISLTRVLISD
B7: GRIP and coiled-coil domain-containing protein 1 (Homo sapiens), Q96CN9 (parent)
chain: MEKFGMNFGGGPSKKDLLETIETQKKQLLQYQARLKDVVRAYKSLLKEKEALEASIKVLSVSHEADVGLAGVQLPGLTFPDSVDDRCSTHSEDSTGTATSLDTAASLTSTKGEFGVEDDRPARGPPPPKSEEASWSESGVSSSSGDGPFAGGEVDKRLHQLKTQLATLTSSLATVTQEKSRMEASYLADKKKMKQDLEDASNKAEEERARLEGELKGLQEQIAETKARLITQQHDRAQEQSDHALMLRELQKLLQEERTQRQDLELRLEETREALAGRAYAAEQMEGFELQTKQLTREVEELKSELQAIRDEKNQPDPRLQELQEEAARLKSHFQAQLQQEMRKTALAEDQLRQQSQVEEQRVAALENQISEVSELLGTYEKAKQKDQLAIQKLKERILQLDLENKTLALAASSRSPLDSHGEESSLDVNVLKDKMEKLKRLLQVAARKSQVTLDVEKLCDLEIMPSSEAADGEKATALYYQQELKQLKEEFERYKMRAQVVLKSKNTKDGNLGKELEAAQEQLAELKEKYISLRLSCEELEHQHQQEADDWKQELARLQQLHRQELERCQLDFRDRTLKLEEELHKQRDRALAVLTEKDLELEQLRSVALASGLPGRRSPVGGGGPGDPADTSSSDSLTQALQLAAANEPTFFLYAEQLARKEVEITSLRKQKHRLEVEVHQLQDRLLEEGERHREEVAALQSHIEKNIRDQSREGANLEYLKNIIYRFLTLPDSLGRQQTLTAILTILHFSPEEKQVIMRLPTSASWWPSGKR

Variants of: B1
Conditions: with tbc16_human TBC1D16, Q8TBP0

| Variant | effect of a mutation on the interaction |
| --- | --- |
| R74Q | with no effect |
| A115T | with no effect |

Variants of: B2
Conditions: with cdn2c_human CDKN2C

| Variant | effect of a mutation on the interaction |
| --- | --- |
| S446F | with no effect |
| N606H | with no effect |
| A482V | with no effect |
| Y120C | with no effect |
| A155T | with no effect |
| R74G | with no effect |

Variants of: B2
Conditions: with psa1_human PSMA1, P25786
psa1_human PSMA1, P25786, sequence (P25786 whole entry): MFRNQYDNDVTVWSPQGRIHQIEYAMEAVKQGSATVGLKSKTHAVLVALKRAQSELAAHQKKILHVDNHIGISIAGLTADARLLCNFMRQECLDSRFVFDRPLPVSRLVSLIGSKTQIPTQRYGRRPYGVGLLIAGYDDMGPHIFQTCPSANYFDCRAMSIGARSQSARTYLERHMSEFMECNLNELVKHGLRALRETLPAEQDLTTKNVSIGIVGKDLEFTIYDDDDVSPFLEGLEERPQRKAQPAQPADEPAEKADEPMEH

| Variant | effect of a mutation on the interaction |
| --- | --- |
| S446F | with no effect |
| N606H | with no effect |
| A482V | with no effect |
| Y120C | with no effect |
| A155T | with no effect |
| R74G | with no effect |

Variants of: B3
Conditions: with pkhg6_human PLEKHG6, Q3KR16

| Variant | effect of a mutation on the interaction |
| --- | --- |
| L59F | with no effect |

Variants of: B4
Conditions: with goga2_human GOLGA2, Q08379

| Variant | effect of a mutation on the interaction |
| --- | --- |
| P65L | with no effect |

Variants of: B5
Conditions: with gbrl2_human GABARAPL2, P60520
gbrl2_human GABARAPL2, P60520, sequence (P60520 whole entry): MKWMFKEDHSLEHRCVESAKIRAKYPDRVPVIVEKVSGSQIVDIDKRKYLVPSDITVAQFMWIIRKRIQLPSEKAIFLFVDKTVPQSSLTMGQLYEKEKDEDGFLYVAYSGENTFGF

| Variant | effect of a mutation on the interaction |
| --- | --- |
| Q223R | with no effect |

Variants of: B6
Conditions: with trim1_human MID2, Q9UJV3
trim1_human MID2, Q9UJV3, sequence (Q9UJV3 whole entry): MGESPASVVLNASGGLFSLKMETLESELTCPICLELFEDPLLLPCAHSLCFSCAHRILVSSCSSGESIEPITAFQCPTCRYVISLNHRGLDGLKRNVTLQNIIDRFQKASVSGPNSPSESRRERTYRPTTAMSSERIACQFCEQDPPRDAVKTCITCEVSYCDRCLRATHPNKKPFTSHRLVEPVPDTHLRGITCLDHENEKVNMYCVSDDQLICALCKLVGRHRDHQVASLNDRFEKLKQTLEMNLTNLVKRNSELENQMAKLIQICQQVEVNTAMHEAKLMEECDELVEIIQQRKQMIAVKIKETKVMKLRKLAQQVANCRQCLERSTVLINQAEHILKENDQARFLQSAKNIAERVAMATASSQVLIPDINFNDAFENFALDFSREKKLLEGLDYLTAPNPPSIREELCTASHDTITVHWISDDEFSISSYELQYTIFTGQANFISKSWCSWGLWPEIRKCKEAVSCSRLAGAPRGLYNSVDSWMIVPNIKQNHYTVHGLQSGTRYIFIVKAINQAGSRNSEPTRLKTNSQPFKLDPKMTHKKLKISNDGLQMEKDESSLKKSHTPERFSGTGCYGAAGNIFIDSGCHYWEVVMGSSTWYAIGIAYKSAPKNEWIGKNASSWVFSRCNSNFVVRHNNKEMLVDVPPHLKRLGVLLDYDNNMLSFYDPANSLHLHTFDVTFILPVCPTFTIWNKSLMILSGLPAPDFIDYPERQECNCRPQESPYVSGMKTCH

| Variant | effect of a mutation on the interaction |
| --- | --- |
| M123T | disrupting interaction strength |

Variants of: B6
Conditions: with ikzf3_human IKZF3, Q9UKT9
ikzf3_human IKZF3, Q9UKT9, sequence (Q9UKT9 whole entry): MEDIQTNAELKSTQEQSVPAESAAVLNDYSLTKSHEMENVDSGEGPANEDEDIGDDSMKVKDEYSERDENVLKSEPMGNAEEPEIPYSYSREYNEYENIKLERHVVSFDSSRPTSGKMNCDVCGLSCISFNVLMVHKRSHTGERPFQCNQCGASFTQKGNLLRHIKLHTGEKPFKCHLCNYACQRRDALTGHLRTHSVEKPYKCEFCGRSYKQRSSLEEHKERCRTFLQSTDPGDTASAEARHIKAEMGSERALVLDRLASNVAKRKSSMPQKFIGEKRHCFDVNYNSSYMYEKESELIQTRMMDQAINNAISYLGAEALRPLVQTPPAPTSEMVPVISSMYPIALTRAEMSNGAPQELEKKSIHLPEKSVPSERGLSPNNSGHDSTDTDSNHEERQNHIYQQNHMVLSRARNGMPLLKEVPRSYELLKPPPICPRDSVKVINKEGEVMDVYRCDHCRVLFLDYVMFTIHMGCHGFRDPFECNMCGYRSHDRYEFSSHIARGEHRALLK

| Variant | effect of a mutation on the interaction |
| --- | --- |
| M123T | disrupting interaction strength |

Variants of: B6
Conditions: with itf2_human TCF4, P15884
itf2_human TCF4, P15884, sequence (P15884 whole entry): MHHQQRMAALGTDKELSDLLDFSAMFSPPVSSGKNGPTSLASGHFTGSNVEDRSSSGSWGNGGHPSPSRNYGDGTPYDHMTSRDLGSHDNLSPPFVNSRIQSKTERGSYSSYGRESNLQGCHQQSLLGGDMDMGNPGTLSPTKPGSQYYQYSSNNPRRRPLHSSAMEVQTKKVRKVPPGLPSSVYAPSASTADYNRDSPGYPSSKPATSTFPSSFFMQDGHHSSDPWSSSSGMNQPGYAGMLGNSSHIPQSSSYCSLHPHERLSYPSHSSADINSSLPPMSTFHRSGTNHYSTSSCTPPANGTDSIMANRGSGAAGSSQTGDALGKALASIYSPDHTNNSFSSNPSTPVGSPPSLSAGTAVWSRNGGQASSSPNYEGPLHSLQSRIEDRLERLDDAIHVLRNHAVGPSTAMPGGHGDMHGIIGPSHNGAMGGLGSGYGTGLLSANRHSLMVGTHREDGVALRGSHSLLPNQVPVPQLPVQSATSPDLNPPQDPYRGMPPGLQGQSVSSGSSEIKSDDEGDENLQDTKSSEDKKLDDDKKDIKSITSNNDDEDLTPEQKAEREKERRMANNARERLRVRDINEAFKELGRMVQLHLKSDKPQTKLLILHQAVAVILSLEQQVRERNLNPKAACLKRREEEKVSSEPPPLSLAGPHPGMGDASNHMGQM

| Variant | effect of a mutation on the interaction |
| --- | --- |
| M123T | disrupting interaction strength |

Variants of: B6
Conditions: with gfap_human GFAP

| Variant | effect of a mutation on the interaction |
| --- | --- |
| M123T | disrupting interaction strength |

Variants of: B7
Conditions: with mcrs1_human MCRS1, Q96EZ8
mcrs1_human MCRS1, Q96EZ8, sequence (Q96EZ8 whole entry): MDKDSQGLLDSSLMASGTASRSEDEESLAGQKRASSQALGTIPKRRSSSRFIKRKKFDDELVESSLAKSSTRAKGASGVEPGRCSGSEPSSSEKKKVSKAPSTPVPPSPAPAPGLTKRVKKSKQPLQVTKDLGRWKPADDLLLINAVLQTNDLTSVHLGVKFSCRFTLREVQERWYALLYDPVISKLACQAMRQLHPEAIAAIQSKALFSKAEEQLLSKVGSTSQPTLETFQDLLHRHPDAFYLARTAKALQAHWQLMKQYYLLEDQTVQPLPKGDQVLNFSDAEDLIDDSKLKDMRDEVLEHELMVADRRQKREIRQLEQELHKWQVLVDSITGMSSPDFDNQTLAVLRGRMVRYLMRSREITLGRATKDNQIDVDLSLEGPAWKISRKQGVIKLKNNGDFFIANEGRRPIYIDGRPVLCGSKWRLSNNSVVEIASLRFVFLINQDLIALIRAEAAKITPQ

| Variant | effect of a mutation on the interaction |
| --- | --- |
| A274T | with no effect |

Variants of: B7
Conditions: with amol2_human AMOTL2, Q9Y2J4
amol2_human AMOTL2, Q9Y2J4, sequence (Q9Y2J4 whole entry): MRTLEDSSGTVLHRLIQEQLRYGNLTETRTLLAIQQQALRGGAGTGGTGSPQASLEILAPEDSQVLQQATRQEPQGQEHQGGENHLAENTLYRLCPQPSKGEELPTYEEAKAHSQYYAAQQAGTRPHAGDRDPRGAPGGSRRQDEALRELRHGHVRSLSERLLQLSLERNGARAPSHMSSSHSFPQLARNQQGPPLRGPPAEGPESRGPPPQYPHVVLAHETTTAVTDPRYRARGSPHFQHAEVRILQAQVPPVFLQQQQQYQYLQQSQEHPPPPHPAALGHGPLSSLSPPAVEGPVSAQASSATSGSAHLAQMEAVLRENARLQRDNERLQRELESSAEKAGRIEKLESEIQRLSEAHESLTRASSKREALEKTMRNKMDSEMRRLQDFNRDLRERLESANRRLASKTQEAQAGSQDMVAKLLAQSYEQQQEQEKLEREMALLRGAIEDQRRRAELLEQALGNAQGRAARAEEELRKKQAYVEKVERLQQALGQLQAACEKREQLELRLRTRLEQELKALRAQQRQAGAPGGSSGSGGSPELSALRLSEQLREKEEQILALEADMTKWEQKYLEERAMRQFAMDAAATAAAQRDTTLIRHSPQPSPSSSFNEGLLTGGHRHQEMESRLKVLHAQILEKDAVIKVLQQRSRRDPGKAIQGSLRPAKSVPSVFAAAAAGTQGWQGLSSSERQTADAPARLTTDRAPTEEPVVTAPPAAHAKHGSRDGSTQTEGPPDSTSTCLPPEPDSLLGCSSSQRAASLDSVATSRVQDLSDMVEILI

| Variant | effect of a mutation on the interaction |
| --- | --- |
| A274T | with no effect |
